# In the domain aggregation screens of Martell et al. (2025):
# Experiment: soluble fraction after stress (log2 fold change); higher = more stays soluble; pooled small domains, quantitative proteomics
# Conditions: stress: 50 degC
# Method in brief: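 After stress at 50°C, the amount of each protein still soluble was measured. This was done on pooled custom libraries of small protein domains, using high-throughput quantitative proteomics. The figure given is a base-two log fold change and stands for aggregation propensity, with higher values meaning more protein stays in solution.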
row,Sequence,soluble fraction (log2)
1,HMVVDEQRIQTLVSAAEQNSSDPVPRVTLGNLYFDAEQFEEAVKWYEQALALDPRNVNVSTDLGVGYYY,-0.00895
2,HMENKTGEVTVREDSALTLRQGPGTNYEKVGQAYRGDRVDVLEEQNGWYKVKTYDGKEAWASSSYISIV,0.454
3,HMSTMLPFVMRELVELVMKKKALPLGDALYYIYSSKLYKSLLDKSTKLWYSSTLSLYETLEKEKTEEKRRY,-1.79
4,HMSSDLDQYMKNIRKQHNLSKREFAKQLGISAATIVRIENGITVSPSKNLISKLAYYLQKSEVEILQDIQS,-1.08
5,HMGNEMQVPNVAGKTVDEAIEIFNNMGLKVAAENKYAQSDDVKEGDVVKTDPSSGRNVKKGSEITLYISQG,0.0976
6,HMSSYTQEDVRSGILYMAQLKPRNIEEFVSTLAFSKDDIMDNLSFLVDEGFLKFDADTDTYFNPVPL,-0.214
7,HMGGEEKALLFGDVDIREAGEITQRLEQAEIPYELRGDGSSIFVPRSRVMEARMMISADGLL,-0.0992
8,HMRMNASERQNQIVDLLSQNGVMKIMDIADHFNVSRETIRRDLIILEDDNRIKKWFGGVISAN,-0.461
9,HMLERPLKLKSHYVSTIYEKVAVQYSEGEEKKSVMGTLIEVNQDTIVLDDRGTIIEIPFKSITRAKTVF,-0.245
10,HMANSREIPKLAGIEQEEAVKQLLDLDLKPVIEEITDDDTDAGDVVRTDPAAGEHVAVDTEITVFISIG,-0.421
11,HMSDPSRKADFIAALSSLGGSAGNGKLREQLGWDEPTYDAVKQTLLDEGAITNGRGRGGSVALAG,≥ 0.62
12,HMSIEHVPGYTTLSKREQEIVHALLTRKTPEELADDLSISINTLNKHISHIYHKLGIRGRMQLFDYA,-0.284
13,HMSLLQDRQRHEALAALGYYRGSVSAAWGAASVEALKAAQAALGVEVDGKWGPKTEDVIQAALGT,-0.00704
14,HMNDPNAPITENQLKAIHVLLDKLKVDDNLKHAYIADVLQLDNEPETLKTLTKAQGSMAIERMQLLKDN,0.328
15,HMPLPLYVQIKESLRGQIFDGTYGEHERLPSENDLMSSFGVSRITVRQALSDLEKEELIFKVPGKGAFVSR,-1.32
16,HMKKDLATYAYEHIKQMVIDRELMPGERIQQEVLARELGISRTPLVTALNRLASENLVELEANKGFSVRRF,-0.0386
17,HMNVDLLEARIPIQSHGMRLDQVVAELFPDYSRNRLAAWIKEGRLTVDGKTMKPRDRALASAHVVLEVV,-0.18
18,HMQTLQNNLKQIRSRVGLTQGELASRAGISRQAYSTLESGNANPSTEVSLRLAEALNERIESLFFLANQ,-0.275
19,HMSMPDERMLTSWMMARVKAAGKTMTRDAWNEFFERSNDSMDHMDMEMEKLLSYVYDKDGITLEDVEA,-0.394
20,HMVSKEELANSIYENKTADELGNIVLRKGKYSGEMLRTIYVKDIGYLEWHSKQSYEYSNAVKWYLKKLE,-1.21
21,HMDYKYYIVKEPMVVKNLELPVGTRIVYFNTSLFGDSESSRPLKEKNIYQIFFPDDKPLIWGGVPVSLIER,-1.97
22,HMRYNPETTAGRRGLIIKMLDEYGQVNVNELSRYFNVSEVTVRNDLAYLERKNLLIRARGGAIKTE,-0.941
23,HMRLDHIFSVVERLKGVSLGAGDRLEVQKYEDLLTVYKSKNALSSEEAQTLNDILASLLKMMAKYD,-0.00461
24,HMKTYEILFDILSRESDYISGEKLAQELGISRTSIWKAIQHLEKEGVHIESVKNKGYKLLSGDLLIAEKI,-1.14
25,HMDIVEIYVGEEDGERIDSYLAQELNNVSRSYVQGLIKNQLITVNGNHVKPKHIVKEGEHIIVNIPPPKV,0.24

row,Sequence,soluble fraction (log2)
1,HMQQEAVSGKLLQLDLAKKEGRLSTDLGREVLFHIPKPELFVHLSVGQRIIIKLDAGQEAVGV,-0.0409
2,HMDEEVLVVQEGGERLDVFVAANAEGITRSFVQNLIKKGDVTVDGAPRKANYRLRSGQVVRFSLPEP,-0.328
3,HMVSPEVEMLRAAVETMSERQKQVYELHYLRGFNVKETAAILGMSSPTVTAHKKRIMEIIKKFFE,-1.22
4,HMFRSTLEELKHQISGFLKANQSQEFTAQNLADGLRMTSIAEYKRVVNAMDALVRDGELTFDAGKYQYNPN,-0.279
5,HMAFGTGTVTASSLRVREDASTSAATLDTLSKGSKVSVLADEQDGFYKVQIGEQVGYMSAEYLDVTE,0.0904
6,HMQNNWFYEENGQRKGPVSENEMVQFIKSSVISHGTSVWKQGFPDWLKVENTDLRVHLDNSAP,0.136
7,HMKDMWNRIRRARLSAGLSQAALAKETGVRRSAVTQWEKEGGTSPSVANLARIAVVTQVHFEWLATGRGPG,-2.67
8,HMAIELTPRQLDIIELVRKHAPITGEQIAELLGVTRPSIRSDLGLLVMLGYIDAKPKVGYFAGPRM,-0.597
9,HMKRLPAQMGGGDGVLRVPGLNNFVYVTIADKTLPAFNNRVPPKKGLRIWVGYSPEEPNLFQVLSTRTD,-0.576
10,HMFTEEQMDWLRLIKDHIVASLSILPEDLELTPFDRKGGLLGFYDAFGDEYEKILQEMNEELVA,-0.588
11,HMLQADALADPVGWALRTLGFDLEAGTPERSAIQRSFRQSLIEAHPDHGGADDEAAQRIADITEARRILLA,-0.346
12,HMYIDNVTIYDVGFNERIVHALERAGVKNLYDLSQMNFYQLQRIRNLGASSLEKVINRIHSYGILLKNES,-1.2
13,HMISQATMEKMGLTNRERQLVDFIVRGASNQEISEKMFISINTVKIHVSNIFRKAGVRSRTELMDKYP,-3.49
14,HMSSVGELEVGNIFEGTVNSVRGGKVLLALGNGQMVLAQMDGRVNITPGSSMFFQVKSNDGETVAIRPYTG,-0.133
15,HMTIGEALLNLRKQLGLNQTEMAANVVSTSFYSKVERNIHDIGTKDLLQILNKHQINATYFFENLN,-1.91
16,HMKSNNPLDHVRVKQRGASWAYYFEKAKVDGKRRRGEGGGYATEQDARMAGVEAYNAYIGGGAK,-0.0068
17,HMDGKPSLIISNGQINYKEMVKLRYSLEDLLFQLRQNSIKSIEEVEYAFLESNGKLSIFPYNFL,-1.51
18,HMQKLSPKQRRGNIIELIKENPTITAKNISTIFNLNQRTIERDLAKLTEEGYIKYEGSSKDGKWVFL,0.087
19,HMNEFGIPDKKLQDIETRVNSMSLEQLNAARSMLIDEQEALNSSTGSASSGRLKEIAAELSTIQKALIAIA,0.163
20,HMTPKVTVPDVTGQTFSSAKQILESLGFTVKQQGSTDETDQVIDQNPTSGEADKGATITLTTKSS,0.297
21,HMNRKILVLLAGKEQITDNVSVMQSIHRYAFINTATINKAQHEILIEKEEIRQEALTLIHEFLK,-0.0593
22,HMSLTEESAKSLIGLTENEAVKVAAERGWTVRVAMRDGEAFMLTQDYSENRVNLTVMKTLVTAVTI,-0.273
23,HMFWRKIDFYGLNLSTYRNIINIGSDYNYIYLDLGNIYKILNPITGKIIEEQDLVMNIDNINWSS,-0.0971
24,HMQDGVNLENIEQKLSTLGVGKAQYFLQNVGGNKFNAYMALNTDGVEGYQKGSDTLIEIKNVE,0.11
25,HMEFQVKVIVSSLNIRSGPGTSYDTLGTVTKGDIFTIVETNSDSTWGKMQSGGWISIKDAYVKK,-0.688

row,Sequence,soluble fraction (log2)
1,HMAIWAVFYKNEPFNLKSFNSLTSYPGPKYKKTSFSNPGHALNLAKKLNLTFGTEDFQVVKLTQGTIV,-2.61
2,HMIADPAKPDWTTILAPVTTGTTVTHKTFGQGTVTKLDKTKKYLTVSFAAGQKNFVFPNAFIDGFLK,0.203
3,HMQYFDIETEIQKFIKSENNLSDFDKETLQSFLYQLSKGSPEENTAKKVVDILNKFLPLTTAIINMIKALT,0.168
4,HMFDFLELGQAIQDAREKQRITREELAEELGISARHLQSVEKEGQYPSFRLFIQLVTMFHISVDQYI,-0.0829
5,HMGDYDHYVVKVEDTLLNWLVTNVTTMSRNKLKDILAGQGIKVNGKITTKYDYPLTPGMKIAISKTKR,-0.275
6,HMRTMRHLSVPRQETQQILSQLKAEFALPQGARVQPDPSDSKRTLIPVKEGAESELLSRYPVVHAEP,0.0847
7,HMPEPMKLSDLPPELWQRVSDLFDEVIDLPETDRIPYIRNLWGSEPLVAKELMALLVAAANVD,-0.274
8,HMLPVYSITEAAERLDIPASTIKWYADRFASYISPSKGKGRKRFTPEDLATLQKIHELSQDHTTEEAEAML,-0.281
9,HMNTYVLPDALKSQLSVEDTGMLTKQLQALPETLAEGVLDSLSQMLSKNTLQNPVGWMLAVMKRAREGNFN,-0.00363
10,HMNKQEFLNTLRIIFKKANVLDVESIIDVYEEHFAVGYEKGLNDEQIIKSLGTPKEIYTSYVEAGI,-0.615
11,HMYSSASKEEIDQLMKRLILNLDAKGYFWPQDKEKSLKLYLHNLFSKLPLNSSDIRFLHGLIRALSEE,-1.08
12,HMSSLTDNFVKALSYYLALSGKSKKEVADGIGIPPTTFSSWSNGKHLPDMDRLQNLATYLGAPVSEFFDFT,-0.0831
13,HMPQNLQDQLFELILSRYPRRADAVEDLANILHLGKDPVYRRLRGDTFLSPLEISTLALHFRISLDALIV,-2.55
14,HMTAKQDLDSIYRHLVATRKSIAENPKMVSSIDDPQALIKMLDYAIQYFYTDKRDEALAVLEKNEEQLNFR,-0.117
15,HMLTDAAAVKRSVRNLVQYGFYEKPFHPEIGSGVRDLLFENMTPFVANNLSKQIEEIITNYEPRA,-0.396
16,HMSLTMPKLIGMHLFQAERTLNYYGFQYKVEGPDSASVVIDQYPKEGVTVDPHYPITLKIGPSA,-0.158
17,HMDSGINVWASAEGLTITADKDTTVYVYDIYGRTIHTSEVKAGTSDIAINTKGIVIVKANGYTKKII,-1
18,HMQLASILDDIPGIGKKRKENLLTHFGSFSKIQSADIDALAEVPGISRDLAETIHTYLKTHQ,0.0967
19,HMSFTSQSVLIEIVRGTTQLTPLAAAVGANKREVVLAVHRLKQRGLVVSAGLGQYAATEAGRAFLTAGREV,-2.76
20,HMSSIRDVVPEGLLSDREKLVLVLAFDRDLDGPDMARTLGISANTVRVLKARALKKLRQAGIQP,-0.957
21,HMPETYVVFSKDGYANLRRGTTINSEILDVLDNGEYVTKLDEVGEWYRVEYADFDGGYIHKSQLKNI,-0.252
22,HMSGEPVKSTLPGNVFKILVAVGDSVKKGQRMFVLEAMKMEIDVNAPKDGLVTSIEVQQGQTVANGQILAK,0.0741
23,HMSLLTIDELSQATGVSVRTLRYYVSSGVLDKPTGETRNARYGTHHLDQVRNIKKLQEEGLTLNRILEIKK,-1.65
24,HMPTTLEGIEKYLSSGLIKGIGPHLAGKLVEAFGTRVFEVVEHQPERLRTVGGIGRTRAESITSAWRDQ,-0.168
25,HMPRRSYLDARKKLLGMLNSPDFNSGDQIPAERELSEVLGISRVTVRKIITELIDEGVLERRGNQGTWLVD,-0.378
